Data reported in the nanobody polyreactivity screen of Harvey et al. (2022).

Assay: yeast display, Sf9 membrane polyspecificity reagent, FACS + sequencing; frameworks hold sequencing errors
Summary of the method: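 Galactose induction of a Saccharomyces cerevisiae BJ5465 synthetic nanobody display library ran 36–48 hours. The cells were then stained for 1 hour at 4 °C with 10% biotinylated, detergent-solubilized Sf9 membrane reagent, pulled down on streptavidin microbeads and FACS-sorted into low and high (top ~1%) gates on expression and reagent-binding fluorescence. Labels for polyreactivity follow the gate of origin.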

Row | Sequence | polyreactivity (PSR sort gate)
1 | QVQLVDSGGGLVQAGGSLRLSCAASGRTFDNYAMGWYRQAPGKERELVAAISSSGGRTYYADSVKGRFTISRDNAKNTVYLQMNSLKPEDTAVYYCAAVWPVYRTHPGMDYWGHGTQVTVSS | high polyreactivity
2 | QVQLVDSGGGLVQAGGSLRLSCAASGRTFDVYTMGWYRQAPGKERELVAAINGGGSTYYADSVKGRFTISRDNAKNTVYLQMNTLKPEDTAVYYCAAKLRAGRSSYYWGQGTQVTVSS | high polyreactivity
3 | QVQLVDSGGGLVQAGGSLRLSCAASGRTFGYNAMGCYRQATGKERELVAAISSSGGSTYYADSVKGRFTISRDYAKNTVYLQMNSLKPEDTAVYYCATQGYSWAHGSDFWGQGTQVTVSS | low polyreactivity
4 | QVQLVDSGGGLVQAGGSLRLSCAASGRTFGYYAMGWYRQAPGKERELVAAISWRGTSTYYADSVKGRFTISRDNAKNTVYLQMNSLKPEDTAVYYCAVGRTVAHRFIAGDYWGQGTQVTVSS | high polyreactivity
5 | QVQLVDSGGGLVQAGGSLRLSCAASGRTFYFNAMGWYRQAPGKERELVAAITSSDSTYYADSVKGRFTISRDNAKNTVYLQMISLKPEDTAVYYCNADYFYWREMDYWGQGTQVTVSS | low polyreactivity
6 | QVQLVDSGGGLVQAGGSLRLSCAASGRTFYRNAMGWYRQAPGKVRELVAGISSGGFTYYADSVKGRFTITRDNAKNTFYLQMNSLKPEDTPVYYCAASAWSGYWFDYWGQGTQVTVSS | high polyreactivity
7 | QVQLVDSGGGLVQAGGSLRLSCAASGRTFYTNAMGWYRQAPRKERQLVAAITRGGSTYYADSVKGRFTISRDNAKNTVYLQMNSLKPEDTAVYYCAADGRFRSHTFYYWGQGTQVTVSS | high polyreactivity
8 | QVQLVDSGGGLVQAGGSLRLSCAASGRTIGGNAMGWSRQAPGKERELVAGINISGGSTNYADSVKGRFTISRDNAKNTVYLQMNSLKPEDTAVYYCNADTAVYAWDDDYWGQGTQVTVSS | low polyreactivity
9 | QVQLVDSGGGLVQAGGSLRLSCAASGRTILINAMGWDRQAPGKERELVAGITRNGGTTYYADSVKGRFTISRDNAKNTVYLQMNSLKPEDTAVYYCAKRYPSWFNYWGQGTQVTVSS | high polyreactivity
10 | QVQLVDSGGGLVQAGGSLRLSCAASGSIFDPNAMGWYRQAPGKERELVADIDSSDGSTYYADSVKGRFTISRDNAKNTVYLQMNSLKPEDTAVYYCNALSALAVEDGYWGQGTQVTVSS | low polyreactivity
11 | QVQLVDSGGGLVQAGGSLRLSCAASGSIFDSYVKGWYRQAPGKERELVAAITYSGGSTYADSVKGRFTISRDNAKNTVYLQMNSLKPEDTAVYYCAAASYFYMFLLEDYWGQGTHVTVSS | low polyreactivity
12 | QVQLVDSGGGLVQAGGSLRLSCAASGSIFEGYVMGWYRQAPGKERELVAAITTGGGSTYYADSVKGRFTISRDNAKNTVDLPMNSLKPEDTAVYYCAKDYWFGYEYWGQGTQVTVSS | low polyreactivity
13 | QVQLVDSGGGLVQAGGSLRLSCAASGSIFGYYTMGWYRQAPGKERELVAAITSGGSTKYADSVKGRITISRDNAKNTVYLQMNCLKPEDTAVYYCAKVSYYPWRYDYWGPGTQVTVSS | low polyreactivity
14 | QVQLVDSGGGLVQAGGSLRLSCAASGSIFKFYTMGWYRQAPGKERQLVAAISSSDGSTHYADSVKGRFTISRDNAKNTVYLQMNSLKPEDTAVYYCARRRYSRYSVTRGNYWGQGTQVTVSS | high polyreactivity
15 | QVQLVDSGGGLVQAGGSLRLSCAASGSIFLAYAMGWYRQAPGKEREFVAAISFSDGSTYYADSVKGRFTISRDNAKNTVYLQMNSLKPEDTAVYYCNKGASPDDYDFWGQGTQVTVSS | low polyreactivity
16 | QVQLVDSGGGLVQAGGSLRLSCAASGSIFRGYAMGWYRQAPGKERELVAAIRRRAGTTYYADSVKARFTISRDNAKNTVYLQMNSLKPEDTAVYYCAVERYHSGDDYLGQGTQVTVSS | high polyreactivity
17 | QVQLVDSGGGLVQAGGSLRLSCAASGSIFYVYAMGWYRQAPGKERELVAAISWTGGSTDYADSVKGRFTISRDNAKNTVYLHMNSLKPEDTAVYYCATELGYGDWYNYWGQGTQVTVSS | low polyreactivity
18 | QVQLVDSGGGLVQAGGSLRLSCAASGSIIFYNAMGWYRQAPGKERELVAAISRGGNTNYADSVKGRFTISRDNAKNNFYLQMNSLKSEDTAVYYCNADLVQYWGRRRWYDYWGQGTQVTVSS | low polyreactivity
19 | QVQLVDSGGGLVQAGGSLRLSCAASGSIIGVNAMGWYRQAPGKERELVAAISWSGSSTRYADSVKGRFTISRDNAKNTVYLQMNSLKPEDTAVYYCAAEAQTKWWDYYYWGQGTQVTVSS | high polyreactivity
20 | QVQLVDSGGGLVQAGGSLRLSCAASGSIVVLYAMGWYRQAPGKERELVAAITSGASTNYADSVKGRFTISRDNAKNTVYLQMNSLKPEDTAVYYCHTGSRLDRVDSWGQGTQVTVSS | low polyreactivity
21 | QVQLVDSGGGLVQAGGSLRLSCAASGSNFTKYAMGWYRQAPGKERELVAAILRSGDRTYYADSVKGRFTISRDNAKNTVYLQMTSMIPEDTAVYYCAAGYSQYWTDPQGFAYDYWGQGTQVTVSS | low polyreactivity
22 | QVQLVDSGGGLVQAGGSLRLSCAASGSNYVDYDMGWYRQAPGKERDLVAALTYSGARTYYADSVKGRFTISRDNAENTVYLQMNSLKPEDTAVYYCNAAGYPYPYRGDYDYWGQGTQVTVSS | low polyreactivity
